# Data from the RNAGym collection of RNA variant scans (doi:10.7554/elife.80360).
# B1: HDV Ribozyme (parent)
# chain: GGCCGGCAUGGUCCCAGCCUCCUCGCUGGCGCCGGCUGGGCAACAUUCCGAGGGGACCGUCCCCUCGGUAAUGGCGAAUGGGACCCA
# Variants of: B1
# Test: self-cleavage, relative activity (ratio to wild type); higher = more cleavage; co-transcriptional
row,Variant,self-cleavage
1,A16C A43U,0.0831
2,C57U C61G,0.967
3,C30U U79A,0.293
4,C62A U69A,0.997
5,U20A C75U,0.0489
6,C36A G74U,0.14
7,G74A U79G,0.356
8,G1A U69C,0.104
9,G11U C84U,0.292
10,U12G G28U,0
11,G2U G53C,0.0647
12,G6C A71G,0
13,C3U C32A,0.053
14,C33G,0.173
15,U12G G59C,0.95
16,U23C A83G,0.742
17,U46A G73U,0.0811
18,G6U C19U,0.0489
19,C14U C86G,1.12
20,G59A U60G,0.956
21,C15G U20G,0
22,C58G A83U,0.776
23,C14A A42G,0.277
24,C4A G35A,0.0733

row,Variant,self-cleavage
1,A70C A83C,0.434
2,G38U C57A,0.323
3,C19A G52A,0.0863
4,U12A A16U,0.32
5,U12G C32G,0.0755
6,G38C U79G,0
7,G54C C57A,0.937
8,G1A C62G,0.0519
9,G34A A42U,0.0326
10,C7U C85U,0.886
11,U20A G53A,0.122
12,G82A A87C,0.583
13,G10A C61A,0.674
14,G5C U69G,0.111
15,C32A C84G,0.111
16,C4A U60C,0.344
17,G1C U12C,0.175
18,C19U C32A,0.0361
19,A42U G59C,0.422
20,A71G C75A,0.158
21,U9C A45G,0.95
22,G50C U69C,1.07
23,C21U C32A,0.0674
24,A45G A56U,1.12

row,Variant,self-cleavage
1,C14G G38U,0.106
2,U23A C86U,0.872
3,G38A G74U,0.0934
4,C48U G73U,0.521
5,C30A G50U,0.729
6,C13G A43G,0.133
7,G52A C75U,0.147
8,U69A G76U,0.95
9,G28U U79A,0.0978
10,G29U G40C,0.0583
11,C21G C44G,0.141
12,G25U C48G,0
13,U9C C49U,0.959
14,G54U G80C,0.159
15,A8U G28C,0.166
16,U47A C58U,1.03
17,A51G C62A,0.812
18,C48A C84G,0.727
19,C57G G68C,0.831
20,G5U C19G,0
21,U9C G17A,1.08
22,C36A C61A,0.0536
23,G2C U65C,0.14
24,C49U G80A,0.4

row,Variant,self-cleavage
1,G10A C36U,0.396
2,G40C C75A,0.0326
3,A71G A78C,0.138
4,U23C C58G,0.673
5,G10C A83U,0.465
6,C66G A78G,0.875
7,U20A G76U,0
8,G38C G82A,0.0594
9,A56C G81U,0.277
10,C61G G73C,0.264
11,A51U U69G,0.98
12,C7G A78U,0.0791
13,U20G U69A,0
14,C13G A83U,0
15,C19A C44U,0.0191
16,C21G C49A,0
17,G5A U69C,0.208
18,U69G G81C,0.101
19,U12A G74A,0.128
20,C15G U79A,0.312
21,C13A C15A,0
22,G11C C85U,0.266
23,U79A G82A,0.227
24,C15U G38A,0.188

row,Variant,self-cleavage
1,C61U U69C,0.972
2,C3U C36G,0.0519
3,C66G G73U,0.389
4,C22U U65G,0.845
5,U46C C84G,0.237
6,C30A C58G,0.596
7,G25A G73U,0.0702
8,C3A U37C,0.661
9,G39C G68A,0.241
10,C58A A71U,1.05
11,C21U G74U,0.0875
12,C26U C84U,1.05
13,U37G A83C,0.0678
14,C49A G53A,0.816
15,G10U G35C,0.0723
16,G11C U72A,0.0875
17,C3A C41G,0.0761
18,A45G C48G,1.23
19,C3A U60C,0.499
20,A42C G68C,0.198
21,C13A U47C,0.277
22,U9G C32U,0.623
23,G17A G28A,0
24,G29C G68C,0.0449

row,Variant,self-cleavage
1,C22A G35U,0.0791
2,C58U U79A,1.07
3,C18A G74U,0.0528
4,C44U G76U,0.847
5,C15U C66G,0.831
6,C13A C66G,0.378
7,C44U A83G,0.48
8,U9G C57A,0.831
9,G10C C66U,0.862
10,G76U U79G,0.91
11,C3U G34U,0.141
12,G5U C48G,0.554
13,C58A A77G,1.09
14,G34C A42U,0.262
15,C14A C61U,0.656
16,G31U C64G,0.514
17,C14A U72A,0.332
18,G54C G81A,0.393
19,U12C C18G,0
20,C36G U65A,0.244
21,A45U U65C,1.04
22,G28C A71G,0.222
23,C48A C75A,0.326
24,U72G C84G,0.214

row,Variant,self-cleavage
1,C26G C63U,0.743
2,A16U G74A,0.388
3,C7A C15A,0.0415
4,C32A C85A,0.341
5,C30A G68U,0.569
6,C49A A78C,0.116
7,G28U C57U,0.208
8,C13U U27G,1.06
9,A16U C26G,0.831
10,C7G C84G,0.0665
11,U12A A78C,0.123
12,U23C C41U,0.959
13,C48G G68U,0.88
14,G34A C49U,0.3
15,G28C C64U,0.198
16,C4U G82C,0.0875
17,U12A U23C,0.237
18,U65C A83G,0.862
19,U65C A83U,0.369
20,G35U G55U,0.508
21,G74U A87C,0.554
22,C85U C86U,0.895
23,C13G U27G,0.396
24,G59U A83C,0.34

row,Variant,self-cleavage
1,U23A C85G,0.942
2,U47A G55A,0.927
3,C4U G68U,0.657
4,C32A A70C,0.101
5,U12A C36A,0.0992
6,C57G U69C,1.06
7,C61A U79G,1.14
8,C32U A83U,0.456
9,G55C G80A,0.34
10,G39A,0.51
11,G50C A70G,0.917
12,C22U A56U,0.776
13,G1A C21U,0.121
14,C7A G52C,0.482
15,C41U G52A,1.06
16,G31U G81C,0.208
17,G40U C63A,0.793
18,U46A C49G,0.415
19,U46A U65A,0.914
20,C32G A56C,0.0739
21,C32U C41G,0.429
22,C36G A77G,0.0791
23,G54C A83G,0.905
24,G28A C66U,0.138

row,Variant,self-cleavage
1,G39U C86A,0.796
2,G28U G39A,0.0256
3,C7G G76A,0.172
4,C22G C57A,0.0652
5,G29U G38U,0.141
6,C7U C26U,0.867
7,U12C A77C,0.237
8,C15U C44A,0.684
9,A16U C84G,1.09
10,G25U U37C,0.17
11,U12A U65A,0.431
12,G54A C75G,0.185
13,A56G C58A,1.12
14,A78G U79G,0.268
15,C14G C48G,0.332
16,U12G C48A,0.831
17,G17C G31A,0.0652
18,C13A U46A,0.0346
19,G40U G55C,0.937
20,U47A C57A,1.02
21,C13G C26U,0.208
22,U46A A51C,0.831
23,C30U G76C,0.683
24,G6C C85U,0.401

row,Variant,self-cleavage
1,U12C G39C,0
2,U23A A45G,1.15
3,C26A C62A,1.15
4,U12C G31A,0.237
5,G53U G54C,0.845
6,C21G G59U,0.0941
7,C64U A71C,0.719
8,U37G G55U,0.214
9,G10C C85G,0.76
10,C18U G31C,0.0326
11,C64U G67U,0.804
12,C44A G59U,0.776
13,G68U A70C,0.582
14,C62A A77G,1.17
15,C21G C22G,0
16,U12C U23G,0.208
17,C58A U60G,0.831
18,U12C U60A,0.145
19,A42U A83U,0.142
20,G11C C84A,0.458
21,C36U A51C,0.665
22,G25U A83U,0.0791
23,C4U C26U,0.764
24,A42C U72G,0.256

row,Variant,self-cleavage
1,C32G G81C,0.0773
2,C4A C44A,0.148
3,C57A U72G,0.635
4,G28A U69G,0
5,A42U C48A,0.485
6,C7U G28A,0.136
7,A71G A77U,0.764
8,A42U G53C,0.437
9,G50C G54A,0.369
10,G59A C66G,1.11
11,G5C C85A,0.199
12,C24G G38C,0.0791
13,C24G G38A,0.0631
14,G1A U47A,0.145
15,G6C C13A,0
16,G73A U79C,0.186
17,A43C A51C,0.604
18,C15A C41G,0.285
19,C24U U65C,0.597
20,A8U U72G,0.289
21,C41A A43U,0.57
22,U27A C30A,0.525
23,C22A G29A,0.0297
24,C3A G38C,0

row,Variant,self-cleavage
1,C64U A78G,0.813
2,C3U C26G,0.989
3,C41A C64A,0.794
4,A43C C64A,0.38
5,G67A C86U,0.845
6,C61A G67A,0.9
7,U47G A78U,0.196
8,A77C A78U,0.208
9,G50C U79A,0.739
10,U23G C64U,0.61
11,C49A A56C,1.05
12,G1U A43U,0.225
13,C7U A45C,0.119
14,A83C,0.458
15,C32A C48A,0.116
16,C19A C32U,0.0841
17,G40A C66G,0.655
18,C26U A87C,0.953
19,G54A A77U,0.634
20,U47G G54U,1.07
21,G11C G50C,0.365
22,C15U G28C,0.0405
23,C22A C26A,0.262
24,G10C C30G,0.212

row,Variant,self-cleavage
1,C7A G34A,0.175
2,C24A G40A,0.809
3,G11A C49G,0.156
4,U20A G31U,0.0978
5,U46C A70C,0.795
6,C49G G55U,0.844
7,C21U A56C,0.289
8,G25A C48G,0.122
9,U12C A83U,0.128
10,C75G A83U,0.201
11,U23C C24A,0.287
12,C26U C86G,1.14
13,U9A A51U,0.914
14,C22U A83U,0.199
15,A71C,0.84
16,C3G C85U,0.751
17,G11A A43U,0.198
18,A51U G52U,0.889
19,G17C C36A,0.0361
20,G67C C85A,0.7
21,C63U G81C,0.151
22,G17A A87C,0.716
23,A51C U69G,1.15
24,C41G C63G,0.517

row,Variant,self-cleavage
1,A8G G40U,0.554
2,G5C G6C,0.151
3,C33A G52U,0.161
4,A71U G76A,0.932
5,C57G G76C,0.895
6,G5U G67A,0.32
7,C22G A87U,0.141
8,C18U G74A,0.0639
9,U20G G34C,0.138
10,A8G C24A,0.762
11,C18G A43C,0.332
12,C48G A51G,0.997
13,C33G U47A,0.227
14,C18A G50A,0.23
15,C58U C61U,0.954
16,G28C A87U,0.0455
17,G11A C19A,0.0811
18,A16G C24U,0.808
19,G50A G54A,0.726
20,C57U A83G,0.808
21,G5C U27A,0.227
22,C62G U72A,0.467
